These results are taken from US20220135628A1 (OXFORD UNIVERSITY INNOVATION, published 2022).

Test [1] concerns the target T1, SpyTag002-MBP (also: fused to MBP, sequence and linker not given here).
T1 construct: not shown: construct pET28a SpyTag002-MBP, GenBank MF974389
T1 chain: VPTIVMVDAYKRYK
Description: SDS-PAGE with sfGFP fluorescence, pH 7.0, 25 C.

In test [2] the target is T2, SpyTag-MBP.
T2 construct: not shown: construct pET28a-SpyTag-MBP, Addgene 35050
Description: SDS-PAGE with sfGFP fluorescence, pH 7.0, 25 C.

Test [3] has as its target SpyTag003-MBP. Kind of test: SDS-PAGE with sfGFP fluorescence, pH 7.0, 25 C.
Description: (§1) The sfGFP fusions were used to enable reactions to be carried out at concentrations as low as 10 nM. […] Percentage isopeptide product formation was calculated by dividing the intensity of the band for the covalent complex by the intensity of all the bands in the lane and multiplying by 100. […] Time-points were analysed during the linear portion of the reaction curve. […] Experiments were carried out in triplicate and the data represent the mean±1 standard deviation.
Test [4] has as its target SpyTag003-MBP. Kind of test: SDS-PAGE with sfGFP fluorescence, pH 7.0, 25 C. The source holds these as a separate data set.
Description: as §1
The target of test [5] is T3, SpyTag003 DA-MBP (also: fused to MBP, sequence and linker not given here).
T3 chain: RGVPHIVMVAAYKRYK
Kind of test: isothermal titration calorimetry, 20 C, PBS pH 7.4, non-covalent complex. Background: In ITC the heat of successive injections is recorded.

Where two headings read alike, the source gives them in different places. No end group written: not given here.

Usually Kd stands for the constant that tells how readily two partners part at equilibrium. Lower therefore signals tighter binding.

B1: SpyCatcher003-sfGFP (designed binder)
chain: VTTLSGLSGEQGPSGDMTTEEDSATHIKFSKRDEDGRELAGATMELRDSSGKTISTWISDGHVKDFYLYPGKYTFVETAAPDGYEVATPIEFTVNEDGQVTVDGEATEGDAHT
notes: also called SpyCatcher003 fused to the N-terminus of super-folder GFP; not shown: super-folder GFP (sfGFP) C-terminal of the catcher
For B1, the “Rate constant (second-order, isopeptide bond formation)” value in test [1] was 83000 M⁻¹ s⁻¹; in test [2], 24000 M⁻¹ s⁻¹; in test [3], 550000 M⁻¹ s⁻¹; in test [4], 550000 M⁻¹ s⁻¹.

B2: SpyCatcher003 (designed binder)
chain: VTTLSGLSGEQGPSGDMTTEEDSATHIKFSKRDEDGRELAGATMELRDSSGKTISTWISDGHVKDFYLYPGKYTFVETAAPDGYEVATPIEFTVNEDGQVTVDGEATEGDAHT
notes: also called 003 Catcher
For the molecule B2, the Kd in test [5] is < 10 nM.
